Measured values published in the nanobody polyreactivity screen of Harvey et al. (2022).

test: yeast display, Sf9 membrane polyspecificity reagent, FACS + sequencing; frameworks hold sequencing errors
Method in brief: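 Using colony PCR, genes from sorted yeast display clones were amplified, then sequenced on MiSeq at 2 × 250 and filtered by CDR length. The clones had been stained with 10% biotinylated, detergent-solubilized Sf9 membrane reagent for 1 hour at 4 °C and sorted by FACS into low and high (top ~1%) gates on anti-HA and streptavidin fluorescence. Polyreactivity labels come from the gate of origin.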

Sequence	polyreactivity (PSR sort gate)
QVQLVESGGGLVQAGGSLRLSCAASGFTFAYYDMGWYRQAPGKERELVAAITWDGGSTYYADSVKGRFTISRDNAKNTVYLQMNSLKPEDTAVYYCAAPSGPYGYDYWGQGTQVTVSS	high polyreactivity
QVQLVESGGGLVQAGGSLRLSCAASGFTFCDYAKGWYRQATGKERELVAAISDNDGSTDYADSVKGRFTISRDNAKNTVYLQMTRLKPEDSAVYYCNAESELPSKEGDYWGLGTQVTVSS	low polyreactivity
QVQLVESGGGLVQAGGSLRLSCAASGFTFDDYTMGWYRQAPGKEREFVAAISSSGGSTYYADSVKGRFTISRDNAKNTVYLQMNSLKPEDTAVYYCAADARYYDYYEYDYWGQGTQVTVSS	high polyreactivity
QVQLVESGGGLVQAGGSLRLSCAASGFTFDFYAMGWYRQAPGKERELVATISYSGASTYYADSVKGRFTISRDNAKNTIYLQLNSLKPEDTAVYYCNAESSYYYGTAAYEYWGQGTQVTVSS	low polyreactivity
QVQLVESGGGLVQAGGSLRLSCAASGFTFDFYAMGWYRQAPGKERELVAVISSSGRTYYADSVKGRFTISRDNAKNTVYLQMNSLKPEDTAVYYCAAKAKRGHTYDYWGQGTQVTVSS	high polyreactivity
QVQLVESGGGLVQAGGSLRLSCAASGFTFDGYAMGWYRQAPGKERELVAAISDSGDSTYYADSVKGRFTISRDNAKNTVYLQMNSLKPEDTAVYYCNADAYGTPEFTSYAVRYDYWGQGTQVTVSS	low polyreactivity
QVQLVESGGGLVQAGGSLRLSCAASGFTFDIYGMGWYRQAPGNERDLVASITSRSARTYYAYSVKGRFTISRDNAKNTVYLQMNSLKPEDTAVYYCAAYYWQCTYDSRRTGWRLMNYWGQGTQVTVSS	high polyreactivity
QVQLVESGGGLVQAGGSLRLSCAASGFTFDKKVMGWYRLAPGKERELVAANSVRGGTTYYADSVKGRFTISRDYAKNTVYLQMNSLKPEDSAVYDCAARAYGPPARYESWGQGTQVTVSS	low polyreactivity
QVQLVESGGGLVQAGGSLRLSCAASGFTFDPYAMGWYRQAPGKERELVAAIDYSGGTTYYADSVKGRFTISRDNAKNTVYLQMNSLKPEDTAVYYCAAEYTYYHWWGYDYWGQGTQVTVSS	high polyreactivity
QVQLVESGGGLVQAGGSLRLSCAASGFTFDQYAMGWYRQAPGKEREFVAAINQSTGSTYYADSVKGRFTISRDNAKNTVYLQMISLKPEDTAVYYCAAEESSTSSEYDYWGQGTQVTVSS	low polyreactivity
QVQLVESGGGLVQAGGSLRLSCAASGFTFDSNAMGWYRQAPGKERELVAAISASGDSTYYADSVKGRFTISRDNAKNTVYLQMNSLKPEDTAVYYCAADRFYGGWRFDHWGQGTQVTVSS	low polyreactivity
QVQLVESGGGLVQAGGSLRLSCAASGFTFDSYDMGGYRQAPGKERVLVAAITWSGGSTYYADSVKGRFTISRDYAKNTVYLQMNSLKPEDTAVYYGNADTGTYWVPWYHDGYDYWGQGTQVTVSS	low polyreactivity
QVQLVESGGGLVQAGGSLRLSCAASGFTFDTNAMGWYRQAPGKERELVAAISWGGDTTYYADSVKGRFTISRDNAKNTVYLQMNSLKTEDTAVYYCNVYWYDWWGYDYWGQGTQVTVSS	high polyreactivity
QVQLVESGGGLVQAGGSLRLSCAASGFTFDTYAMGWSRQAPGKERELVAAISSSGGSTYYADSVKGRFTISRDNAKNTVYLQMNSLKPEDTAVYYCNAYYRYSRGYDYWGQGTQVTVSS	high polyreactivity
QVQLVESGGGLVQAGGSLRLSCAASGFTFDTYAMGWYRQAPGKERELVAAISWGGGSTFYADSVKGRFTISRDNAKNTVYLQMNSLKPEDTAVYYCAAEIPGYYVFNYGYWYYEYDYWGQGTQVTVSS	high polyreactivity
QVQLVESGGGLVQAGGSLRLSCAASGFTFDTYTMGWYRQAPGKERELVAAISSGGNTNYADSVKGRFTISRDNAKNTVYLQMNSLKPEDTAVYYCARGATLLQYSYWGVYEYDSWGQGTQVTVSS	low polyreactivity
QVQLVESGGGLVQAGGSLRLSCAASGFTFDYNAMGWYRQAPGKEREFVAAISSNGGSTYYADSVKGRFTISRDNAKNTVYFQMNSLKPEDTAVYYCAARYRSFVYWYGYWGQGTQVTVSS	high polyreactivity
QVQLVESGGGLVQAGGSLRLSCAASGFTFDYNGLGWYRQAPGKERELVAGIRWSGGSTYYADSVKGRFTISRDNAKNTVYLQMNSLKPEDTAVYYCATSQYGYRSWPGLYYWGQGTQVTVSS	low polyreactivity
QVQLVESGGGLVQAGGSLRLSCAASGFTFDYYTMGWYRQAPGKEREFVAAITWNGGTTNYADSVKGRFTISRDNAKYTVYLQMNSLKPEDTAVYYCAATAYWYFSNDSGRSYDYWGQGTQVTVSS	low polyreactivity
QVQLVESGGGLVQAGGSLRLSCAASGFTFEGNAMGWYRQAPGKEREFVAAITSNGGGTYYADSVKGRFTISRDNAKNTVYLQMNSLKPEDTAVYDCAATYWTWYSWYDYWGQGTQVTVSS	high polyreactivity

Sequence	polyreactivity (PSR sort gate)
QVQLVESGGGLVQAGGSLRLSCAASGFTFEIYAMGWYRQAPGKERELVAAITWSGGSTDYADSVKGRFTISRDNAKNSVYFQMNSLKPEDTAVYYCAAVTVQYVGYGYWGQGTQVTVSS	low polyreactivity
QVQLVESGGGLVQAGGSLRLSCAASGFTFERYTMGWYIQAPGKERELVATISRRSGRTSYADSVKGRFTISRDNAKNTVYLQMNSLKPEDTEVYYCAVDYAYPDRYDYWGQGTQVTVSS	high polyreactivity
QVQLVESGGGLVQAGGSLRLSCAASGFTFETNAMGWYRQEPGQERELVAAISYSGGSTYYADSVKGRFTISRDNAKNTVYLQMNSLKPEDNAVYYCNKYYRGIFKAHRDYWGQGTQVTVSS	low polyreactivity
QVQLVESGGGLVQAGGSLRLSCAASGFTFEYYALGWYRPAPGKERELVAAITYSGGSTYYADSVKGRFTISRDNAKITVYLQLNSLKPEDTAVYYCATESPRYRLYQSAVYGYFYWGQGTQVTVSS	high polyreactivity
QVQLVESGGGLVQAGGSLRLSCAASGFTFFDYVMGWYRQAPGKERELVAAISSSGGSTNYADSVKGRFTISRDNAKNTVYLQMNSLKPQDTAVYYCAAEDFWDDVEYWGQGTQVTVSS	low polyreactivity
QVQLVESGGGLVQAGGSLRLSCAASGFTFFKYAMGGYRQAPGKERELVAAITRNGGRTYYADSVKGRFTISRDNAKNTVYLHMNSLKPEDTAVYYCNAASVNGGRDFDYWGQGTQVTVSS	high polyreactivity
QVQLVESGGGLVQAGGSLRLSCAASGFTFFMYAMGGDRQAPGKEREFVASITGSGGSTYYADSVKGRFTISRDTAKNSVYLQMNSLKPEDTAVYYCNKLSYGRSGYWGQGTQVTVSS	high polyreactivity
QVQLVESGGGLVQAGGSLRLSCAASGFTFFPNAMGWYRQAPGKERELVADITDGGSTNYADSVKGRFTISRDNAKNTVYLQLNSLKPEDTADYYCNADWYGWFGGYEYWGQGTQVTVSS	high polyreactivity
QVQLVESGGGLVQAGGSLRLSCAASGFTFFQNHRGWYRQAPGTERELVADISYRGRRPYYADSVKGRFTISRDNAKNTVYLQMNCLKPVDTAVYYCARRSSKPSSIQYYYCGQGTQVTVSS	high polyreactivity
QVQLVESGGGLVQAGGSLRLSCAASGFTFFRNAIGWYRQAPGKERELVAAISGSGGSTYYADSVKGRFTISRDNAKNTVYLQMNSLKPEDTAVYYCAARTSYYVYRHPSGRYDYWGQGTQVTVSS	low polyreactivity
QVQLVESGGGLVQAGGSLRLSCAASGFTFFYNAMGRYRQAPGKEREFVAAISGRGGTTYYADSVKGRFTISRDNAKNTVYLEMNSLKPEDTAVYYCAARSVSTLRYTSCKLSDDYWGQGTQVTVSS	high polyreactivity
QVQLVESGGGLVQAGGSLRLSCAASGFTFFYYAMGWYRQAPGKERELVASISWSGGSTYYADSVKGRFTISRDNAKNTVYLQMNSLKPEDTAVYYCAADVPFGGDYWGQGTQVTVSS	low polyreactivity
QVQLVESGGGLVQAGGSLRLSCAASGFTFGANAMGWYRQAPGKERELVAAITKRGGNTYYADSVKGRFTISRDNAKNTVYLQMNSLKPEDTAVYYCARDYTHGYDYWGQGTQVTVSS	high polyreactivity
QVQLVESGGGLVQAGGSLRLSCAASGFTFGANDMGWYRQAPGKERELVATISSSGGTTYYADSVKGRFTISRDNAKNTVYLQMNSLKPEDTAVYYCAAKGLFTGRVSRYADDHCGQGTQVTVSS	low polyreactivity
QVQLVESGGGLVQAGGSLRLSCAASGFTFGANVMGWYRQAPGKERQLVAGITWSGDSTYYADSVKGRFTISRDNAKNTVYLQMNSLKPEDTAVYYCAADVYDGEYILDYDYWGQGTQVTVSS	low polyreactivity
QVQLVESGGGLVQAGGSLRLSCAASGFTFGAYAMGWYRQAPGKERELVAAITWSGSSTYYADSVKGRFTISRDNAKNTVYLQMNSLKPEDTAVYYCNVQDKGYVSYYGGDSWGQGTQVTVSS	high polyreactivity
QVQLVESGGGLVQAGGSLRLSCAASGFTFGAYAMGWYRQAPGKERELVASISWSGGSTYYADSVKGRFTISRDNAKNTVYLQLNSLKPEDTAVYYCNKDFVYPDDDGLFDYWGQGTQVTVSS	low polyreactivity
QVQLVESGGGLVQAGGSLRLSCAASGFTFGDYAMGWYRQAPGIERELVAAIRSGGSTNYADSVKGRFTISRDNAKNTVYLQMNSLNPEDTAVYYCAAEWPHGQGAWSFFCRDSWGQGTQVTVSS	low polyreactivity
QVQLVESGGGLVQAGGSLRLSCAASGFTFGFYAMGWSRQATGKERELVARISYSGGSTYYADSVKGRFTISRDNAKNTVYLQMNSLKPEDTAVYYCNRGYRRLQEDYWGQGTQVTVSS	high polyreactivity
QVQLVESGGGLVQAGGSLRLSCAASGFTFGFYAMGWYRQAPGKERELVAAITSGGGTTYYADSVKGRFTISRDNAKNTVYLQMNSLKPEYTAVYYCNADPDVPFFSWLTGRGTYDYWGQGTQVTVSS	low polyreactivity
